# Values of other authors, collected in publication PMC4319847 (PLoS ONE, 2015).
# Test system: Yeast importin-α
# Settings: in the crystal (1BK6) and in solution by DLS; ref [13]
# Text: The open homodimerization probably attributes to H119 at the top of the loop; this loop corresponds to the K ...
molecule,measurement,value
"Yeast importin-α: Yeast importin-α (1BK6), first crystal structure of an importin-α shown to dimerize (protein, UniProt Q02821 1-542, looked up) Importin subunit alpha: MDNGTDSSTSKFVPEYRRTNFKNKGRFSADELRRRRDTQQVELRKAKRDEALAKRRNFIPPTDGADSDEEDESSVSADQQFYSQLQQELPQMTQQLNSDDMQEQLSATVKFRQILSREHRPPIDVVIQAGVVPRLVEFMRENQPEMLQLEAAWALTNIASGTSAQTKVVVDADAVPLFIQLLYTGSVEVKEQAIWALGNVAGDSTDYRDYVLQCNAMEPILGLFNSNKPSLIRTATWTLSNLCRGKKPQPDWSVVSQALPTLAKLIYSMDTETLVDACWAISYLSDGPQEAIQAVIDVRIPKRLVELLSHESTLVQTPALRAVGNIVTGNDLQTQVVINAGVLPALRLLLSSPKENIKKEACWTISNITAGNTEQIQAVIDANLIPPLVKLLEVAEYKTKKEACWAISNASSGGLQRPDIIRYLVSQGCIKPLCDLLEIADNRIIEVTLDALENILKMGEADKEARGLNINENADFIEKAGGMEKIFNCQQNENDKIYEKAYKIIETYFGEEEDAVDETMAPQNAGNTFGFGSNVNQQFNFN",dimerization,dimerize not only in the crystal but also in solution
